{"source": "the DeepSol protein solubility set", "data": [{"test": "soluble on expression in E. coli; label from the status in PepcDB or PDB records", "values": [{"sequence": "MLWGRREFVMREEDTVCVGSDGLQYCKVCGEAKEAFFPEGGFMGMKKHSRQCACDRKAYEEEQKYFKDKEHRELVSRNTSICFDESRMEEWTFENADMSDAVMHKAKSYVDNWEEMKRNHIGCLFWGPVGTGKSFIAGCIANELLKQEVTVKMTNFNTIIDDIFPLADKTEYINALASYQLLIIDDLGVERNSEYALGIIFSVIDRRIRSGRPLIITTNLPLNEIKSETMLDKRRIYDRILEMCTPMYVGGASKREAIASMKMEKAKTLLNTNKGEE", "soluble on expression in E. coli": "not soluble"}, {"sequence": "MLWRKRLFAHLYPGLSARHEALVAERKRALFREALRRARPERVLEIGPGPGTNLAHLPEGVAYLALEPNPFFHPRLREEARKRGLALTLLPGRAEAIPLPGGSVDLVVATLVLCSVADPEKAIEEVHRVLRPGGAYLFLEHVAAPKRTPLRFLQEVATPFFAFFGDGCHPNRETLALIQARFPRVEAEAFPLPLPVVAPHVAGLAFKEGGSGGSLQGPWA", "soluble on expression in E. coli": "soluble"}, {"sequence": "MLYINSFLDRMGEIIRGEKSVEEADKLLDQKNIFEMFRSDCEEILNLYKSGKAEKEEVQRNFYLLKTYVVSQLSIHFERLKEFAESKGFKIEKKLDPEVINEIALYIDRVEKEV", "soluble on expression in E. coli": "soluble"}, {"sequence": "MLYIPQFSIYFCLGYLLLFCKISNAVKQSWEINQELITEANKEHTVFGDMLLTPAQLIRYENSKDSDLSIRGVSIKGSSMNRWSNNIVPYVISPQYSPAQKQILVSSLRYFERVSCFKFVERTTQNDYLFIVPLDGCYSYVGKIGGRQTLSLAADCIADYIIWHEMMHAIGFEHEHQRPDRDSFIRVDYANVIPGQMINFDKLKTSHVEYPDIYDFKSIMHYDGYAFGRVDTARRVRLATMTPLKPGVTLEDNMKFTATDIEKLNRLGQCGARGGQYSNQGVVASTCQDVATAVSCEGNRRRGMCKNPFYKQMMIKSCQKTCRLCSYTRMIDEDDDLTPNTTVKSVKCEDKHPRCDIYSHNGFCTLPFYDDVRYQLCAKTCNLC", "soluble on expression in E. coli": "not soluble"}, {"sequence": "MMATQTLSIDSYQDGQQMQVVTELKTEQDPNCSDPDAEGVSPPPIESQTPMDADKQAIYRHPLFPLLALLFEKCEQSTQGSEGTTSASFDVDIENFVRKQEKDGKPFFCEDPETDNLMVKAIQVLRIHLLELEKVNELCKDFCSRYIACLKTKMNSETLLSGEPGSPYSPVQSQQIQSAITGTLSPQGIVVPASALQQGNVTMATVAGGTVYQPVTVVTPQGQVVTQALSPGTIRIQNSQLQLQLNQDLSILHQEDGSSKNKRGVLPKHATNVMRSWLFQHIGHPYPTEDEKKQIAAQTNLTLLQVNNWFINARRRILQPMLDSSCSETPKTKKKPAQNRPVQRFWPDSLASGVAQATPSELAMSEGAVVTITTPVNMNVDSLQSLSSDGATLAVQQVMMAGQSEDESVDSTEDEGGALAPTHISGLVLENSDSLQ", "soluble on expression in E. coli": "not soluble"}, {"sequence": "MMDAMTDPITFAATAAGRDAAHPLRDISFGEIGIATERKPDGTIYVRSTTTLTDYPVRITDRLHHFAETAPDRVFMAERNGEGGWRRISYAEMLRAAQTIASALIARGLSAERPVMILSGNSIDHAMVMFGALYAGVAMCPVSPPYSLVSKDYGKLRHIVGLLTPGLIFADDITAFAPAILATVPEDVELAATRGEVKGRKVTSLAELLATPEHPELAAKHEAIGHDTIAKFLLTSGSTGNPKAVINTQRMICANQVMIREAMAFLKDEPPVIVDWLPWNHTFGGNHNIGLTLFNGGSMYIDDGKPTPAGIASTIRNLREIAPTVYFNVPKGYESLLPVLREDQQLRKLFFSRLHAMFFSGASLAAHVWNGLDEVAVAETGARVPMLTGLGATETAPFFMSVTPQTSRSGHVGLPVPGNEAKLVPNNGKLEVRAKGPNITPGYWRAPELTDKAFDEEGFYKLNDALKPVDANDLSRGFDFDGRISEDFKLASGTWVSVGPLRAKFIAACASLVRDVVIAGLDRDYVTALAILDPDGCKLINATLPLEDLAGMAADHLIREAFRERFATLLTQATGSSNRVTRAVLLGEPLSIDKGEITDKGSVNQRAVLEYRASLIADLYADPPPAHVIALELEHHHHHH", "soluble on expression in E. coli": "soluble"}, {"sequence": "MMDITTLDQFKDEIYGVKGTPRRDNLERELETLRIGVQIRNARQKKEMTQAQLAERINKKRTFISKVENDGGNLTLKTLIDIVERGLGGKLNIEVKI", "soluble on expression in E. coli": "not soluble"}]}]}
